B1: Speckle-type POZ protein (Homo sapiens), O43791 (parent)
chain: MSRVPSPPPPAEMSSGPVAESWCYTQIKVVKFSYMWTINNFSFCREEMGEVIKSSTFSSGANDKLKWCLRVNPKGLDEESKDYLSLYLLLVSCPKSEVRAKFKFSILNAKGEETKAMESQRAYRFVQGKDWGFKKFIRRDFLLDEANGLLPDDKLTLFCEVSVVQDSVNISGQNTMNMVKVPECRLADELGGLWENSRFTDCCLCVAGQEFQAHKAILAARSPVFSAMFEHEMEESKKNRVEINDVEPEVFKEMMCFIYTGKAPNLDKMADDLLAAADKYALERLKVMCEDALCSNLSVENAAEILILADLHSADQLKTQAVDFINYHASDVLETSGWKSMVVSHPHLVAEAYRSLASAQCPFLGPPRKRLKQS
partner: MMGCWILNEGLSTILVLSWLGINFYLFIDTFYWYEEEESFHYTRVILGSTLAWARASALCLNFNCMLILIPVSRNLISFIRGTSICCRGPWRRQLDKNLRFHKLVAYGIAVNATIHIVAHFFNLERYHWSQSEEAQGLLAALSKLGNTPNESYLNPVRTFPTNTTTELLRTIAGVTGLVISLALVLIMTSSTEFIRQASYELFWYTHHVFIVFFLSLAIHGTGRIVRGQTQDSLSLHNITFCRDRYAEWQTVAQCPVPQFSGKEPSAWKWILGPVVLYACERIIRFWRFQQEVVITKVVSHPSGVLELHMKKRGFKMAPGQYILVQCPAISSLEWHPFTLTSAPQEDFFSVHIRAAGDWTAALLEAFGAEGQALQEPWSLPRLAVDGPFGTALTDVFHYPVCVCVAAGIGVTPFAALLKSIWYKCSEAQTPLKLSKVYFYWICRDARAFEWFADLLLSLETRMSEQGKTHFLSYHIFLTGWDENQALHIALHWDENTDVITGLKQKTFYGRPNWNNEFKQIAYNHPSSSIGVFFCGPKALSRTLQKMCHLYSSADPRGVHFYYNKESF
B2: Speckle-type POZ protein (Homo sapiens), O43791 (parent)
chain: B1 chain
partner: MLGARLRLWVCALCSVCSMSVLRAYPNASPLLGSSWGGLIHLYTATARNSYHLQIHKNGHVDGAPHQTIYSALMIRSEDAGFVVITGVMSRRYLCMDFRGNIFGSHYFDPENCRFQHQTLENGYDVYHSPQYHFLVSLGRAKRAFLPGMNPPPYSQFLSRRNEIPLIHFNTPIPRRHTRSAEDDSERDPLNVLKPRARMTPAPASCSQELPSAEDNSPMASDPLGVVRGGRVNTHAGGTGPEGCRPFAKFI
B3: Speckle-type POZ protein (Homo sapiens), O43791 (parent)
chain: B1 chain
partner: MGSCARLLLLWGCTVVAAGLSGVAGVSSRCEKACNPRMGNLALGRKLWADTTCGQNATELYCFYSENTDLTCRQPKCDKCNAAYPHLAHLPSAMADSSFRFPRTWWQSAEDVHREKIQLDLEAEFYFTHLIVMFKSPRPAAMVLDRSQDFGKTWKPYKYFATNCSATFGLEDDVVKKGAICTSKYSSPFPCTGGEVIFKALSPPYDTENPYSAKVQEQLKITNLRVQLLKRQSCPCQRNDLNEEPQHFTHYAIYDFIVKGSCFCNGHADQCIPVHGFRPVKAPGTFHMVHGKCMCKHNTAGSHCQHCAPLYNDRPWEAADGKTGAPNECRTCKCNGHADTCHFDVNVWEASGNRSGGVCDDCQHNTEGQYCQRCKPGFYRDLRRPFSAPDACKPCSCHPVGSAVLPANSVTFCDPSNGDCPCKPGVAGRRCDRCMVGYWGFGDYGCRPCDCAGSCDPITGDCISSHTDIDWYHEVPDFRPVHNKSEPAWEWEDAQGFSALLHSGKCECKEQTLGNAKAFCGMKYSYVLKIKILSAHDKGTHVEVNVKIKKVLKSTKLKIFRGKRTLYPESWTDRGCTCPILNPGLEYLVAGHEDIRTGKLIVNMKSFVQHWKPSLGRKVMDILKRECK
B4: Speckle-type POZ protein (Homo sapiens), O43791 (parent)
chain: B1 chain
partner: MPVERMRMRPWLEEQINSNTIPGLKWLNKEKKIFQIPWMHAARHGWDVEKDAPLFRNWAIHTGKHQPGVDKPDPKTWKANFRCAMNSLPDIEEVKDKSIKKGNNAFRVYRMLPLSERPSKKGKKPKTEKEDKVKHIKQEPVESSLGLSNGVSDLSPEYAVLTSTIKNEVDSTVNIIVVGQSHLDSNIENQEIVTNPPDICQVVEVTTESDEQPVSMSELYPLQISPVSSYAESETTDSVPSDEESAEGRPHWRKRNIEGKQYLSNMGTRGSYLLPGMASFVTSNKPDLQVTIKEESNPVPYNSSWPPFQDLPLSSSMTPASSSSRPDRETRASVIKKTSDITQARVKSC
B5: Speckle-type POZ protein (Homo sapiens), O43791 (parent)
chain: B1 chain
partner: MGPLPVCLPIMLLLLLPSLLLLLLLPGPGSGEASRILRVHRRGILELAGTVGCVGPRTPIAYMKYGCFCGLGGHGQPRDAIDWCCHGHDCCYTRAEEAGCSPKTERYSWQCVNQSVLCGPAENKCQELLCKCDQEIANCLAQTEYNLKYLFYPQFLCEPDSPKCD
B6: Speckle-type POZ protein (Homo sapiens), O43791 (parent)
chain: B1 chain
partner: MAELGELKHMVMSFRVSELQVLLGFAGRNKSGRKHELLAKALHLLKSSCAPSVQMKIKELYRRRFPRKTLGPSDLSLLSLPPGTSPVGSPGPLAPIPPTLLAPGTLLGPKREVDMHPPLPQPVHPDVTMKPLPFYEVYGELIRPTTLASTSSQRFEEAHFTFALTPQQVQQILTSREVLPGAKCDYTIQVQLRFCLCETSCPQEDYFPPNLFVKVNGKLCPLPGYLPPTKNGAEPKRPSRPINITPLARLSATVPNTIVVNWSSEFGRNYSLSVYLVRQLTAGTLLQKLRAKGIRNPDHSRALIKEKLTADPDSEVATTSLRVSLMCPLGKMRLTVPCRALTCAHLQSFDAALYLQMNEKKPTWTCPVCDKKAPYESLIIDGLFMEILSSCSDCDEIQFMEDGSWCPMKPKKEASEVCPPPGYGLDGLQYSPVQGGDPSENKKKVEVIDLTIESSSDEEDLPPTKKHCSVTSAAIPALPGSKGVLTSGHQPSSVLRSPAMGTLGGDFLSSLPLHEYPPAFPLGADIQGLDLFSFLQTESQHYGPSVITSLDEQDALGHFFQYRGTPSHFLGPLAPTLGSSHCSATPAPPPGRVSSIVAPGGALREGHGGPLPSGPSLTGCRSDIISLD
B7: Speckle-type POZ protein (Homo sapiens), O43791 (parent)
chain: B1 chain
partner: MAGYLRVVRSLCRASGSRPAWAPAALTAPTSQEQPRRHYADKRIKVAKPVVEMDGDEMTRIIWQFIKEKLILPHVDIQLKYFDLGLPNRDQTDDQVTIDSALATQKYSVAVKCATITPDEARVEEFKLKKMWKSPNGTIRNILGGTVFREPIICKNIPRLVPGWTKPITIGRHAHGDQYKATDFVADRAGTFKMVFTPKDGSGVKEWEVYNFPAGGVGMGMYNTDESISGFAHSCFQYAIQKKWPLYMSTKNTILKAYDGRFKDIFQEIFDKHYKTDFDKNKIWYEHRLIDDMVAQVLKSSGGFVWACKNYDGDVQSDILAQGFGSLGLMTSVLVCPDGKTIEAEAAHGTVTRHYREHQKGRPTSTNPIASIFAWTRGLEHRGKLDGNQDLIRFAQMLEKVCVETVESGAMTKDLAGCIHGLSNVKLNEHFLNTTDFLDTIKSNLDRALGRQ

Variants of: B1
Conditions: with nox3_human NOX3, Q9HBY0

| effect of a mutation on the interaction | Variant |
| --- | --- |
| with no effect | F133L |

Variants of: B1
Conditions: with nox3_human NOX3, Q9HBY0
Remark: another data set of the same source

| effect of a mutation on the interaction | Variant |
| --- | --- |
| with no effect | F133V |

Variants of: B2
Conditions: with fgf23_human FGF23, Q9GZV9

| effect of a mutation on the interaction | Variant |
| --- | --- |
| with no effect | F102C |

Variants of: B2
Conditions: with fgf23_human FGF23, Q9GZV9
Remark: another data set of the same source

| effect of a mutation on the interaction | Variant |
| --- | --- |
| with no effect | F133V |

Variants of: B2
Conditions: with fgf23_human FGF23, Q9GZV9
Remark: another data set of the same source

| effect of a mutation on the interaction | Variant |
| --- | --- |
| with no effect | F133L |

Variants of: B2
Conditions: with fgf23_human FGF23, Q9GZV9
Remark: another data set of the same source

| effect of a mutation on the interaction | Variant |
| --- | --- |
| with no effect | Y87C |

Variants of: B3
Conditions: with net4_human NTN4, Q9HB63

| effect of a mutation on the interaction | Variant |
| --- | --- |
| with no effect | F102C |

Variants of: B3
Conditions: with net4_human NTN4, Q9HB63
Remark: another data set of the same source

| effect of a mutation on the interaction | Variant |
| --- | --- |
| with no effect | Y87C |

Variants of: B3
Conditions: with net4_human NTN4, Q9HB63
Remark: another data set of the same source

| effect of a mutation on the interaction | Variant |
| --- | --- |
| with no effect | F133V |

Variants of: B3
Conditions: with net4_human NTN4, Q9HB63
Remark: another data set of the same source

| effect of a mutation on the interaction | Variant |
| --- | --- |
| with no effect | F133L |

Variants of: B4
Conditions: with irf2_human IRF2, P14316

| effect of a mutation on the interaction | Variant |
| --- | --- |
| with no effect | F102C |

Variants of: B4
Conditions: with irf2_human IRF2, P14316
Remark: another data set of the same source

| effect of a mutation on the interaction | Variant |
| --- | --- |
| with no effect | Y87C |

Variants of: B4
Conditions: with irf2_human IRF2, P14316
Remark: another data set of the same source

| effect of a mutation on the interaction | Variant |
| --- | --- |
| with no effect | F133V |

Variants of: B4
Conditions: with irf2_human IRF2, P14316
Remark: another data set of the same source

| effect of a mutation on the interaction | Variant |
| --- | --- |
| with no effect | F133L |

Variants of: B5
Conditions: with pa2gx_human PLA2G10, O15496

| effect of a mutation on the interaction | Variant |
| --- | --- |
| with no effect | Y87C |

Variants of: B5
Conditions: with pa2gx_human PLA2G10, O15496
Remark: another data set of the same source

| effect of a mutation on the interaction | Variant |
| --- | --- |
| with no effect | F133V |

Variants of: B5
Conditions: with pa2gx_human PLA2G10, O15496
Remark: another data set of the same source

| effect of a mutation on the interaction | Variant |
| --- | --- |
| with no effect | F133L |

Variants of: B5
Conditions: with pa2gx_human PLA2G10, O15496
Remark: another data set of the same source

| effect of a mutation on the interaction | Variant |
| --- | --- |
| with no effect | F102C |

Variants of: B6
Conditions: with pias3_human PIAS3, Q9Y6X2

| effect of a mutation on the interaction | Variant |
| --- | --- |
| with no effect | F133L |

Variants of: B6
Conditions: with pias3_human PIAS3, Q9Y6X2
Remark: another data set of the same source

| effect of a mutation on the interaction | Variant |
| --- | --- |
| with no effect | F133V |

Variants of: B6
Conditions: with pias3_human PIAS3, Q9Y6X2
Remark: another data set of the same source

| effect of a mutation on the interaction | Variant |
| --- | --- |
| with no effect | Y87C |

Variants of: B6
Conditions: with pias3_human PIAS3, Q9Y6X2
Remark: another data set of the same source

| effect of a mutation on the interaction | Variant |
| --- | --- |
| with no effect | F102C |

Variants of: B7
Conditions: with idhp_human IDH2, P48735

| effect of a mutation on the interaction | Variant |
| --- | --- |
| with no effect | Y87C |
